Here are results for one substance from article PMC4406087, “Remaining challenges in cellular flavin cofactor homeostasis and flavoprotein biogenesis” (Frontiers in Chemistry, 2015).

Data set [1] has as its system T1, Nc1ncnc2c1ncn2[C@@H]1O[C@H](COP(=O)(O)OP(=O)(O)OP(=O)(O)O)[C@@H](O)[C@H]1O.
T1 construct: recombinant 6His-tagged cytosolic isoform 2, purified
In words: spectrofluorimetric FAD synthesis assay. In kind it is biochemical, Homo sapiens. The note with it: 50 mM Tris-HCl pH 7.5, 5 mM MgCl2, 37°C, FMN 0.1-2 μM, ordered bi-bi, ATP binds first.

For data set [2], the system named is T2, Cc1cc2nc3c(=O)[nH]c(=O)nc-3n(C[C@H](O)[C@H](O)[C@H](O)COP(=O)(O)O)c2cc1C.
T2 construct: recombinant 6His-tagged cytosolic isoform 2, purified
Kind of data set: spectrofluorimetric FAD synthesis assay. The note with it: 50 mM Tris-HCl pH 7.5, 5 mM MgCl2, 37°C, Km app at the highest ATP (ATP 1 to 100 μM; 8 μM at lowest ATP). The class given is biochemical, Homo sapiens.

6His-hFADS2 (Homo sapiens), sequence (chain, as listed by the source): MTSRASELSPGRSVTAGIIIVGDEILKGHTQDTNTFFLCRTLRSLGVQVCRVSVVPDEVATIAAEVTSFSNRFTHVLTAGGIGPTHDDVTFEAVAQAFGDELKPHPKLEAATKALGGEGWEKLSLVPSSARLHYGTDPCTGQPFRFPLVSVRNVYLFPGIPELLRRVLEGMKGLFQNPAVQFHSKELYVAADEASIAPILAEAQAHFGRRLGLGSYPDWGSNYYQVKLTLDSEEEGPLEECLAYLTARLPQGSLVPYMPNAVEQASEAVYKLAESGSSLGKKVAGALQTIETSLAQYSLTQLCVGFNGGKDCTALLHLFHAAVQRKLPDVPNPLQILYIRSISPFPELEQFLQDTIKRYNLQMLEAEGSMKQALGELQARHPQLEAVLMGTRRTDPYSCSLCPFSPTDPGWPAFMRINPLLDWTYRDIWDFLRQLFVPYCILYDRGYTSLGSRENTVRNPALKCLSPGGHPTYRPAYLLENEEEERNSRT

As to 6His-hFADS2 (Homo sapiens), the Km is 15 µM in data set [1] and 0.4 µM in data set [2].

Usually Km stands for the substrate concentration at which the rate is half of its maximum.
